Target: 6xHis-tagged Imp1 (ΦKZ gp69) (phage ΦKZ)
Test: SEC + other: mass photometry

Substance: FLAG-tagged Imp6 (ΦKZ gp67) (natural protein)
- stoichiometry N (gp67 per Imp1): 2
